{"source": "paper PMC7672466", "about": "“Biophysical analysis of Pseudomonas-phage PaP3 small terminase suggests a mechanism for sequence-specific DNA-binding by lateral interdigitation”", "molecules": {"B1": {"name": "Cy3-cos (dsDNA)", "DNA 1": "GCCGGCCCCTTTCCGCGTTA", "DNA 2": "TAACGCGGAAAGGGGCCGGC"}}, "key": {"[1]": {"molecular_target": "Pseudomonas phage LUZ24 small terminase subunit (TerS) (Pseudomonas phage LUZ24)", "experiment": "AUC; sedimentation velocity; TerS from heparin peak 2 (850 mM NaCl); 40 000 rpm, 6 °C; 20 mM Tris-HCl pH 7.5, 150 mM NaCl, 3 mM DTT, 2.5% glycerol; 1.3-2.2 mg/ml"}, "[2]": {"molecular_target": "Pseudomonas phage NV1 small terminase subunit (TerS) (Pseudomonas phage NV1)", "experiment": "SEC-SAXS; TerS from heparin peak 2; PaP3 at 1.7 mg/ml, NV1 at 2.0 mg/ml; Superdex 200 10/300 GL; 20 mM Tris-HCl pH 8.0, 150 mM NaCl, 2.5% glycerol, 0.5 mM TCEP; 4 °C"}, "[3]": {"molecular_target": "Pseudomonas phage NV1 small terminase subunit (TerS) (Pseudomonas phage NV1)", "experiment": "AUC; sedimentation velocity; TerS from heparin peak 2 (850 mM NaCl); 40 000 rpm, 6 °C; 20 mM Tris-HCl pH 7.5, 150 mM NaCl, 3 mM DTT, 2.5% glycerol; 1.3-2.2 mg/ml"}, "[4]": {"molecular_target": "Pseudomonas phage NV1 small terminase subunit (TerS) (Pseudomonas phage NV1)", "experiment": "crystal structure; TerS from heparin peak 2 at 7.5 mg/ml, vapor diffusion hanging drop; PaP3 at 3.0 Å, NV1 at 3.95 Å"}, "[5]": {"molecular_target": "Pseudomonas phage PaP3 small terminase subunit (TerS) (Pseudomonas phage PaP3)", "experiment": "SEC-SAXS; TerS from heparin peak 2; PaP3 at 1.7 mg/ml, NV1 at 2.0 mg/ml; Superdex 200 10/300 GL; 20 mM Tris-HCl pH 8.0, 150 mM NaCl, 2.5% glycerol, 0.5 mM TCEP; 4 °C"}, "[6]": {"molecular_target": "Pseudomonas phage PaP3 small terminase subunit (TerS) (Pseudomonas phage PaP3)", "experiment": "AUC; sedimentation velocity; TerS from heparin peak 2 (850 mM NaCl); 40 000 rpm, 6 °C; 20 mM Tris-HCl pH 7.5, 150 mM NaCl, 3 mM DTT, 2.5% glycerol; 1.3-2.2 mg/ml"}, "[7]": {"molecular_target": "Pseudomonas phage PaP3 small terminase subunit (TerS) (Pseudomonas phage PaP3)", "experiment": "crystal structure; TerS from heparin peak 2 at 7.5 mg/ml, vapor diffusion hanging drop; PaP3 at 3.0 Å, NV1 at 3.95 Å"}, "[8]": {"molecular_target": "T1, PaP3 TerS WT (small terminase, peak 2) (Pseudomonas phage PaP3, UniProt Q8H9R5 1-152)", "T1 sequence": "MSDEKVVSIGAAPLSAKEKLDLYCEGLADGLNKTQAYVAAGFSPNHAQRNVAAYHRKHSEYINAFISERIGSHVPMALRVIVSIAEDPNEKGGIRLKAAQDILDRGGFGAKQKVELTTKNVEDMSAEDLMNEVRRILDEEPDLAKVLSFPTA", "experiment": "EMSA; agarose gel, 0-40 uM TerS; EMSA: incubation 37 C 30 min (binding buffer not stated; proteins in GF buffer 20 mM Tris-HCl pH 7.5, 150 mM NaCl, 5 mM bME, 2.5% glycerol); 1% agarose or 4-16% acrylamide gel, 0.5x TBE, 4 C", "conditions": "protein: recombinant; tags: GST removed by PreScission protease; chain copies: 9; label: 5' Cy3 on both strands; blunt"}}}
{"molecule": "Pseudomonas phage LUZ24 small terminase subunit (TerS) (natural protein)", "values": [{"measurement": "stoichiometry N", "setting": "[1]", "result": 9, "unit": "mer"}]}
{"molecule": "Pseudomonas phage NV1 small terminase subunit (TerS) (natural protein)", "values": [{"measurement": "stoichiometry N", "setting": "[2]", "result": 9}, {"measurement": "stoichiometry N", "setting": "[3]", "result": 9, "unit": "mer"}, {"measurement": "stoichiometry N", "setting": "[4]", "result": 9}]}
{"molecule": "Pseudomonas phage PaP3 small terminase subunit (TerS) (natural protein)", "values": [{"measurement": "stoichiometry N", "setting": "[5]", "result": 9}, {"measurement": "stoichiometry N", "setting": "[6]", "result": 9, "unit": "mer"}, {"measurement": "stoichiometry N", "setting": "[7]", "result": 9}]}
{"molecule": "B1", "values": [{"measurement": "binding result", "setting": "[8]", "result": "binds"}]}
